Experiment [1] deals with Feline_OSMR_hlgG1_Fc (feline). Kind of experiment: indirect ELISA, fOSMR coated; OD ratio to antibody expression control. On the technique in general: An ELISA detects its analyte on a solid surface through an enzyme-linked reagent.
Experiment [2] concerns the target Canine_OSMR_hlgG1_Fc (canine). Briefly: SPR Biacore.
Experiment [3] deals with Feline_OSMR_hlgG1_Fc (feline). Briefly: SPR Biacore. Background: SPR reads the build-up and loss of mass on a sensor chip optically.

Feline_OSMR_hlgG1_Fc (feline), sequence (chain, as listed by the source limits assumed, form in doubt): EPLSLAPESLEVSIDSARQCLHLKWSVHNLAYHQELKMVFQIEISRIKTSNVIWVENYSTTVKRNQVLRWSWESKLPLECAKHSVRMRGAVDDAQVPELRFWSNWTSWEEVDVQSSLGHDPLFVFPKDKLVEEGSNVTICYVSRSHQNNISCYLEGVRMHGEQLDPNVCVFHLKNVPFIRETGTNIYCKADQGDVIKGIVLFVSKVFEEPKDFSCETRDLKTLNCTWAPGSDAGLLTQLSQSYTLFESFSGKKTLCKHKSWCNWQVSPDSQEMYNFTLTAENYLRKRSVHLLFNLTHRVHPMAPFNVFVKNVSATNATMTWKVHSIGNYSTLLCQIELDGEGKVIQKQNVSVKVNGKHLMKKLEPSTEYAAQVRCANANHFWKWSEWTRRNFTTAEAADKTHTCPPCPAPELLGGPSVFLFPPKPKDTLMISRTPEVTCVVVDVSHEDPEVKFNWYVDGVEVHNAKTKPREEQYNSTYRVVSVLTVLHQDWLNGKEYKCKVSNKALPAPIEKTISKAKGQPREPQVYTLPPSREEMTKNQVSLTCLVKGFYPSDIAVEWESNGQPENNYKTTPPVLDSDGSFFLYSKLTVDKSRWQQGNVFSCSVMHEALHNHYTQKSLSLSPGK
Canine_OSMR_hlgG1_Fc (canine), sequence (chain, as listed by the source limits assumed, form in doubt): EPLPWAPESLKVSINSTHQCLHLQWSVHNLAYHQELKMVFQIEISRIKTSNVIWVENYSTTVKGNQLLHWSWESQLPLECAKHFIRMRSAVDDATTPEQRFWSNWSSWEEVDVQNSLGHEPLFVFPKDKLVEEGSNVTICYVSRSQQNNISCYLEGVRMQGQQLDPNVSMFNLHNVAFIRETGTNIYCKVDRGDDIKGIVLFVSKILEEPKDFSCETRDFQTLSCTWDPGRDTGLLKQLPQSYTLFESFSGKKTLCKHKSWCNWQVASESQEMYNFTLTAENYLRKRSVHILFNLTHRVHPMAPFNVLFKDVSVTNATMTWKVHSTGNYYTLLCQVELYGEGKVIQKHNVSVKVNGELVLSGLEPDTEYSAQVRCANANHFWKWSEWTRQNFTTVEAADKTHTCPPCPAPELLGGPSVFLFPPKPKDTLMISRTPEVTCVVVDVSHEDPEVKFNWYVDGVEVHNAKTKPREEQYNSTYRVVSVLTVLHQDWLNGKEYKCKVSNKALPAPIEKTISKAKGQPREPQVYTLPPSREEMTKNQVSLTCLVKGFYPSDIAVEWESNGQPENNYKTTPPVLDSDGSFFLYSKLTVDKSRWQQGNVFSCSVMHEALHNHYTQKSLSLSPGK

B1: Mu_19F07_VH (SEQ ID NO: 47)_S56A (antibody, V domains shown)
VH: EVKLVESEGGLVQPGSSMKLSCTASGFTFSDYYMAWVRQVPEKGLEWVANINYDGASTYYLDSLKSRFIISRDNAKNILYLQMSSLKSEDTATYYCARGLTWDFDVWGTGTTVTVSS
VL: DIVMTQSHKFMSPSVGDRVSITCKASQDVDTAVAWYQQKPGQSPKLLIYLASTRHTGVPDRFTGSGSGTDFTLTISNVQSEDLADYFCQQYSRFPLTFGAGTKLELKR
On to B1, for which the ELISA ratio in experiment [1] turned out to be 0.277 OD ratio.

B2: Mu_19F07_VH (SEQ ID NO: 47)_W102A (antibody, V domains shown)
VH: EVKLVESEGGLVQPGSSMKLSCTASGFTFSDYYMAWVRQVPEKGLEWVANINYDGSSTYYLDSLKSRFIISRDNAKNILYLQMSSLKSEDTATYYCARGLTADFDVWGTGTTVTVSS
VL: DIVMTQSHKFMSPSVGDRVSITCKASQDVDTAVAWYQQKPGQSPKLLIYLASTRHTGVPDRFTGSGSGTDFTLTISNVQSEDLADYFCQQYSRFPLTFGAGTKLELKR
With B2, the ELISA ratio in experiment [1] stood at 0.057 OD ratio.

B3: Mu_19F07_VH (SEQ ID NO: 47)_Y60A (antibody, V domains shown)
VH: EVKLVESEGGLVQPGSSMKLSCTASGFTFSDYYMAWVRQVPEKGLEWVANINYDGSSTYALDSLKSRFIISRDNAKNILYLQMSSLKSEDTATYYCARGLTWDFDVWGTGTTVTVSS
VL: DIVMTQSHKFMSPSVGDRVSITCKASQDVDTAVAWYQQKPGQSPKLLIYLASTRHTGVPDRFTGSGSGTDFTLTISNVQSEDLADYFCQQYSRFPLTFGAGTKLELKR
With B3, the ELISA ratio in experiment [1] is 0.479 OD ratio.

B4: Mu_09E09_VH (SEQ ID NO: 35)_Y59A (antibody, V domains shown)
VH: DVKLVESGEGLVKPGGSLKLSCAASGFTFSSYAMSWVRQTPEKRLEWVAYISSGGDYIAYADTVKGRFTISRDNARNTLYLQMSSLKSEDTAMYYCTRDPITGTFAYWGQGTLVTVSA
VL: DLQMTQTTSSLSASLGDRVTISCRASQDINNYLNWYQQKPDGTVKLLIYYTSTLHSGVPSRFSGSGSGTDYSLTISNLEQEDIATYFCQQGNTLPWTFGGGTKLEIKR
For B4, the ELISA ratio in experiment [1] is 0.011 OD ratio.

B5: Mu_09E09_VL (SEQ ID NO: 37)_N92A (antibody, V domains shown)
VH: DVKLVESGEGLVKPGGSLKLSCAASGFTFSSYAMSWVRQTPEKRLEWVAYISSGGDYIYYADTVKGRFTISRDNARNTLYLQMSSLKSEDTAMYYCTRDPITGTFAYWGQGTLVTVSA
VL: DLQMTQTTSSLSASLGDRVTISCRASQDINNYLNWYQQKPDGTVKLLIYYTSTLHSGVPSRFSGSGSGTDYSLTISNLEQEDIATYFCQQGATLPWTFGGGTKLEIKR
For B5, the ELISA ratio in experiment [1] stood at 0.015 OD ratio.

B6: Mu_09E09_VL (SEQ ID NO: 37)_Y50A (antibody, V domains shown)
VH: DVKLVESGEGLVKPGGSLKLSCAASGFTFSSYAMSWVRQTPEKRLEWVAYISSGGDYIYYADTVKGRFTISRDNARNTLYLQMSSLKSEDTAMYYCTRDPITGTFAYWGQGTLVTVSA
VL: DLQMTQTTSSLSASLGDRVTISCRASQDINNYLNWYQQKPDGTVKLLIYATSTLHSGVPSRFSGSGSGTDYSLTISNLEQEDIATYFCQQGNTLPWTFGGGTKLEIKR
As for B6, in experiment [1], the ELISA ratio amounted to 0 OD ratio.

B7: Mu_09E09_VH (SEQ ID NO: 35)_I101A (antibody, V domains shown)
VH: DVKLVESGEGLVKPGGSLKLSCAASGFTFSSYAMSWVRQTPEKRLEWVAYISSGGDYIYYADTVKGRFTISRDNARNTLYLQMSSLKSEDTAMYYCTRDPATGTFAYWGQGTLVTVSA
VL: DLQMTQTTSSLSASLGDRVTISCRASQDINNYLNWYQQKPDGTVKLLIYYTSTLHSGVPSRFSGSGSGTDYSLTISNLEQEDIATYFCQQGNTLPWTFGGGTKLEIKR
As to B7, the ELISA ratio in experiment [1] came out at 0 OD ratio.

B8: Mu_09E09_VL (SEQ ID NO: 37)_W96A (antibody, V domains shown)
VH: DVKLVESGEGLVKPGGSLKLSCAASGFTFSSYAMSWVRQTPEKRLEWVAYISSGGDYIYYADTVKGRFTISRDNARNTLYLQMSSLKSEDTAMYYCTRDPITGTFAYWGQGTLVTVSA
VL: DLQMTQTTSSLSASLGDRVTISCRASQDINNYLNWYQQKPDGTVKLLIYYTSTLHSGVPSRFSGSGSGTDYSLTISNLEQEDIATYFCQQGNTLPATFGGGTKLEIKR
For B8, the ELISA ratio in experiment [1] amounted to 0 OD ratio.

B9: Mu_09E09_VL (SEQ ID NO: 37)_Q90A (antibody, V domains shown)
VH: DVKLVESGEGLVKPGGSLKLSCAASGFTFSSYAMSWVRQTPEKRLEWVAYISSGGDYIYYADTVKGRFTISRDNARNTLYLQMSSLKSEDTAMYYCTRDPITGTFAYWGQGTLVTVSA
VL: DLQMTQTTSSLSASLGDRVTISCRASQDINNYLNWYQQKPDGTVKLLIYYTSTLHSGVPSRFSGSGSGTDYSLTISNLEQEDIATYFCQAGNTLPWTFGGGTKLEIKR
Take B9: the ELISA ratio in experiment [1] stood at 0.183 OD ratio.

B10: FEL_10F07_1.2 (antibody)
heavy: DVQLVESGGDLVKPGGSLRLTCVASGFTYSSYAMSWVRQAPGKGLQWVAYISSGGDYFYYADTVKGRFTISRDNAKNTLYLQMNSLKTEDTATYYCVRDPITGTFAYWGQGTLVTVSSASTTAPSVFPLAPSCGTTSGATVALACLVLGYFPEPVTVSWNSGALTSGVHTFPAVLQASGLYSLSSMVTVPSSRWLSDTFTCNVAHPPSNTKVDKTVRKTDHPPGPKPCDCPKCPPPEAAGAPSIFIFPPKPKDTLSISRTPEVTCLVVDLGPDDSDVQITWFVDNTQVYTAKTSPREEQFNSTYRVVSVLPILHQDWLKGKEFKCKVNSKSLPSPIERTISKAKGQPHEPQVYVLPPAQEELSRNKVSVTCLIKSFHPPDIAVEWEITGQPEPENNYRTTPPQLDSDGTYFVYSKLSVDRSHWQRGNTYTCSVSHEALHSHHTQKSLTQSPGK
light: DITMTQSPGSLAGSPGQQVTMNCRASQDITNYLNWYQQKPGQHPKLLIYYTSTLHSGVPDRFSGSGSGTDFTLTISNLQAEDVASYYCQQGHMLPWTFGQGTRSDAQPSVFLFQPSLDELHTGSASIVCILNDFYPKEVNVKWKVDGVVQNKGIQESTTEQNSKDSTYSLSSTLTMSSTEYQSHEKFSCEVTHKSLASTLVKSFQRSECQRE
As usually defined, the Kd is the concentration at which binding is half-saturated. The low end stands for a tighter complex, the high end for a looser complex. What is called koff is a measure of how fast the partners let go of each other. A higher koff goes with fast dissociation. The term kon denotes the second-order rate constant of association. High values mean faster complex formation, low ones slower complex formation. In experiment [2], B10 registered a dissociation constant Kd of 13.3 nM, a koff of 0.000885 s⁻¹ and a kon of 66500 M⁻¹ s⁻¹. In experiment [3], this molecule returned a Kd of 4.75 nM, a koff of 0.00061 s⁻¹ and an on-rate constant (kon) of 128000 M⁻¹ s⁻¹.

B11: FEL_10F07_2.1 (antibody)
heavy: DVQLVESGGDLVKPGGSLRLTCVASGFTFSSYAMSWVRQAPGKGLQWVAYISSGGDYFYYADTVKGRFTISRDDAKNTLYLQMSSLKTEDTATYYCTGDPITGTFAYWGQGTLVTVSSASTTAPSVFPLAPSCGTTSGATVALACLVLGYFPEPVTVSWNSGALTSGVHTFPAVLQASGLYSLSSMVTVPSSRWLSDTFTCNVAHPPSNTKVDKTVRKTDHPPGPKPCDCPKCPPPEAAGAPSIFIFPPKPKDTLSISRTPEVTCLVVDLGPDDSDVQITWFVDNTQVYTAKTSPREEQFNSTYRVVSVLPILHQDWLKGKEFKCKVNSKSLPSPIERTISKAKGQPHEPQVYVLPPAQEELSRNKVSVTCLIKSFHPPDIAVEWEITGQPEPENNYRTTPPQLDSDGTYFVYSKLSVDRSHWQRGNTYTCSVSHEALHSHHTQKSLTQSPGK
light: EIQMTQSPSSLSASPGDRVTITCRASQDITNYLNWYQQKPGKVPKLLIYYTSTLHSGVPSRFSGSGSGTDFTLTISSLEPEDAATYYCQQGHMLPWTFGQGTRSDAQPSVFLFQPSLDELHTGSASIVCILNDFYPKEVNVKWKVDGVVQNKGIQESTTEQNSKDSTYSLSSTLTMSSTEYQSHEKFSCEVTHKSLASTLVKSFQRSECQRE
For the molecule B11, in experiment [2], the Kd was 10 nM, the koff was found to be 0.000851 s⁻¹ and the kon was 85000 M⁻¹ s⁻¹. In addition, in experiment [3], the Kd was determined as 2.2 nM, the koff was found to be 0.00042 s⁻¹ and the association rate constant (kon) was found to be 191000 M⁻¹ s⁻¹.

B12: Mu_02D09_VH (SEQ ID NO: 31)_G33A (antibody, V domains shown)
VH: EVQLVESGGGLVKPGGSLTLSCAASGFTFSDYAMHWLRQAPEKGLEWVAYISSGSRAVFFADTVKGRFTISRDNAKNTLFLQMTSLRSDDTAMYYCARDRYDGRGFAYWGQGTLVTVSA
VL: DIVLTQSPATLSVTPGDSVSLSCRASQSISNNLHWYQQTSHESPRLLITYASQSISGIPSRFSGSGSGTDFTLSINSVETEDFGMYFCQQSNSWPLTFGAGTKLELKR
B12: the ELISA ratio in experiment [1] turned out to be 0.158 OD ratio. In experiment [3], this molecule registered an equilibrium dissociation constant (Kd) of 6.13 nM, a koff of 0.0014 s⁻¹ and a kon of 229000 M⁻¹ s⁻¹.

B13: Mu_02D09_VH (SEQ ID NO: 31)_S52A (antibody, V domains shown)
VH: EVQLVESGGGLVKPGGSLTLSCAASGFTFSDYGMHWLRQAPEKGLEWVAYIASGSRAVFFADTVKGRFTISRDNAKNTLFLQMTSLRSDDTAMYYCARDRYDGRGFAYWGQGTLVTVSA
VL: DIVLTQSPATLSVTPGDSVSLSCRASQSISNNLHWYQQTSHESPRLLITYASQSISGIPSRFSGSGSGTDFTLSINSVETEDFGMYFCQQSNSWPLTFGAGTKLELKR
For B13, in experiment [1], the ELISA ratio was found to be 0.001 OD ratio. Besides, in experiment [3], the equilibrium dissociation constant (Kd) stood at 0.736 nM, the koff stood at 0.000483 s⁻¹ and the on-rate (kon) was 656000 M⁻¹ s⁻¹.

B14: Mu_02D09_VH (SEQ ID NO: 31)_H35A (antibody, V domains shown)
VH: EVQLVESGGGLVKPGGSLTLSCAASGFTFSDYGMAWLRQAPEKGLEWVAYISSGSRAVFFADTVKGRFTISRDNAKNTLFLQMTSLRSDDTAMYYCARDRYDGRGFAYWGQGTLVTVSA
VL: DIVLTQSPATLSVTPGDSVSLSCRASQSISNNLHWYQQTSHESPRLLITYASQSISGIPSRFSGSGSGTDFTLSINSVETEDFGMYFCQQSNSWPLTFGAGTKLELKR
For B14, the ELISA ratio in experiment [1] came to 0.03 OD ratio. Further, in experiment [3], the Kd came out at 8.05 nM, the off-rate constant (koff) was determined as 0.00108 s⁻¹ and the on-rate (kon) was determined as 134000 M⁻¹ s⁻¹.

B15: Mu_02D09_VH (SEQ ID NO: 31)_Y50A (antibody, V domains shown)
VH: EVQLVESGGGLVKPGGSLTLSCAASGFTFSDYGMHWLRQAPEKGLEWVAAISSGSRAVFFADTVKGRFTISRDNAKNTLFLQMTSLRSDDTAMYYCARDRYDGRGFAYWGQGTLVTVSA
VL: DIVLTQSPATLSVTPGDSVSLSCRASQSISNNLHWYQQTSHESPRLLITYASQSISGIPSRFSGSGSGTDFTLSINSVETEDFGMYFCQQSNSWPLTFGAGTKLELKR
On to B15, for which the ELISA ratio in experiment [1] was determined as 0.009 OD ratio. Also, in experiment [3], the Kd was found to be 0.00119 nM, the koff came to 1.2e-07 s⁻¹ and the kon stood at 100000 M⁻¹ s⁻¹.

B16: Mu_02D09_VH (SEQ ID NO: 31)_D62A (antibody, V domains shown)
VH: EVQLVESGGGLVKPGGSLTLSCAASGFTFSDYGMHWLRQAPEKGLEWVAYISSGSRAVFFAATVKGRFTISRDNAKNTLFLQMTSLRSDDTAMYYCARDRYDGRGFAYWGQGTLVTVSA
VL: DIVLTQSPATLSVTPGDSVSLSCRASQSISNNLHWYQQTSHESPRLLITYASQSISGIPSRFSGSGSGTDFTLSINSVETEDFGMYFCQQSNSWPLTFGAGTKLELKR
For the molecule B16, the ELISA ratio in experiment [1] was found to be 0.01 OD ratio. Further, in experiment [3], the dissociation constant Kd was found to be 0.00211 nM, the koff was 2.31e-07 s⁻¹ and the kon amounted to 109000 M⁻¹ s⁻¹.

Source of the values: patent US20220177594A1.
